From patent US9493781B2, “Synthetic brassica-derived chloroplast transit peptides” (DOW AGROSCIENCES LLC, priority 2012, dated 2016)

Legend:
Arabidopsis [1] = assay: Heritability progeny test of T1 families (T2 plants) with glufosinate, Arabidopsis; assay type: in vivo, Arabidopsis thaliana; details: progeny test of 100 T2 plants, glufosinate 200 g ae/ha
Method in brief: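 Self-pollinated T1 Arabidopsis events gave T2 seed; 100 random T2 siblings were sprayed with glufosinate at 200 g ae/ha and scored resistant/sensitive, segregation tested by Chi square against 3:1.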

Arabidopsis [2] = assay: dgt-28, dgt-32, dgt-33, dgt-3, dgt-7 transformed Arabidopsis (T1, T2, T3) response to postemergence glyphosate, % visual injury; assay type: in vivo, Arabidopsis thaliana; details: 14 days after application
Method in brief: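 Transgenic T1, T2 and T3 Arabidopsis (low-copy events for T2/T3, hemizygous and homozygous in T2) sprayed postemergence with glyphosate at 105, 420, 1,680 or 3,360 g ae/ha. Visual injury scored 2 weeks after treatment as mean, SD and range. Non-transformed Columbia served as sensitive control.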

[3] = Table 8, T1 Arabidopsis, 105 g ae/ha glyphosate
[4] = Table 8, T1 Arabidopsis, 420 g ae/ha glyphosate
[5] = Table 8, T1 Arabidopsis, 1680 g ae/ha glyphosate
[6] = Table 8, T1 Arabidopsis, 3360 g ae/ha glyphosate
[7] = Table 10, T1 Arabidopsis, 1,680 g ae/ha glyphosate
[8] = Table 12, T2 Arabidopsis, 1 copy, 420 g ae/ha glyphosate
[9] = Table 12, T2 Arabidopsis, 1 copy, 840 g ae/ha glyphosate
[10] = Table 12, T2 Arabidopsis, 1 copy, 1680 g ae/ha glyphosate
[11] = Table 12, T2 Arabidopsis, 1 copy, 3360 g ae/ha glyphosate

B1: pDAB105534: TraP13 v2 -- dgt-28 v5: binary construct TraP13 v2:dgt-28 v5 (SEQ ID NO:37) (nucleic acid)
DNA: ATGGCACAAGTTAGCAGAATCTGTAATGGTGTGCAGAACCCATCTCTTATCTCCAATCTCTCAAAGTCCAGCCAACGTAAGTCTCCCCTCAGCGTGTCTCTGAAAACTCAGCAGCCCAGAGCTTCTTCATGGGGTTTGAAGAAATCTGGAACGATGCTTAACGGCTCAGTCATTCGTCCGGTTAAGGTGACAGCCTCCGTCTCCGCTGCTAGAGGGATGCCAGCCTTGTCTTTACCTGGATCAAAGAGTATCACAGCTAGGGCACTCTTTCTTGCTGCTGCTGCTGATGGGGTTACTACTTTGGTGAGGCCATTGAGAAGTGACGACACAGAAGGATTCGCTGAGGGGTTAGTTCGTTTAGGCTATCGTGTAGGGAGGACACCCGATACTTGGCAAGTCGATGGCAGACCACAAGGACCAGCAGTGGCTGAGGCTGACGTCTACTGTAGAGACGGAGCAACCACCGCTAGATTCTTGCCAACCTTAGCAGCTGCTGGTCACGGAACATACAGATTTGATGCTTCACCACAGATGAGGAGACGTCCTCTTTTGCCCTTAAGCAGAGCCTTGAGGGATTTGGGTGTCGATCTTAGACACGAAGAAGCTGAAGGTCATCACCCTCTGACTGTCCGTGCTGCTGGGGTTGAAGGAGGAGAGGTTACTTTGGATGCTGGTCAGTCAAGTCAGTATCTCACTGCCTTGTTGCTCCTTGGTCCCCTTACAAGACAAGGACTGAGGATAAGGGTTACTGATTTGGTGTCAGCACCATACGTGGAGATTACGCTTGCAATGATGAGGGCTTTCGGAGTTGAAGTGGCAAGGGAGGGAGATGTGTTCGTTGTTCCACCTGGTGGATATCGTGCAACTACGTATGCTATAGAACCCGACGCAAGTACTGCTTCTTACTTCTTCGCAGCTGCTGCTTTGACTCCTGGAGCTGAAGTGACTGTACCTGGGTTAGGCACGGGAGCACTTCAAGGAGATTTGGGATTTGTAGATGTCTTAAGGAGAATGGGAGCCGAGGTGTCCGTAGGAGCTGATGCAACCACTGTTAGAGGAACTGGTGAATTGCGTGGCCTTACAGCCAACATGAGAGACATAAGTGATACGATGCCGACCCTCGCTGCAATAGCACCCTTTGCTAGTGCTCCAGTTAGAATCGAGGATGTTGCCAACACTCGTGTCAAAGAATGTGACAGACTTGAGGCTTGTGCAGAGAACCTTAGGAGGTTGGGAGTAAGGGTTGCAACGGGTCCGGACTGGATTGAGATACACCCTGGTCCAGCTACTGGTGCTCAAGTCACAAGCTATGGTGATCACAGAATTGTGATGTCATTTGCAGTGACTGGACTTCGTGTGCCTGGGATCAGCTTCGACGACCCTGGCTGTGTTCGTAAGACTTTTCCTGGGTTTCACGAGGCTTTCGCAGAATTGAGGCGTGGCATTGGGAGCTGA
modifications: In-frame fusion of dgt-28 v5 and TraP13 v2
Arabidopsis [1]
  T1 Families Tested Segregating at 1 Locus (%): 75%
Arabidopsis [2]; [3]
  % Injury Ave: 14.0%
  % Injury Range (%): 0-50%
  No. plants with 20-40% injury: 0
  No. plants with <20% injury: 4
  No. plants with >40% injury: 1
Arabidopsis [2]; [4]
  % Injury Ave: 17.6%
  % Injury Range (%): 0-50%
  No. plants with 20-40% injury: 1
  No. plants with <20% injury: 3
  No. plants with >40% injury: 1
Arabidopsis [2]; [5]
  % Injury Ave: 39.0%
  % Injury Range (%): 5-100%
  No. plants with 20-40% injury: 0
  No. plants with <20% injury: 3
  No. plants with >40% injury: 2
Arabidopsis [2]; [6]
  % Injury Ave: 31.2%
  % Injury Range (%): 18-70%
  No. plants with 20-40% injury: 2
  No. plants with <20% injury: 2
  No. plants with >40% injury: 1
Arabidopsis [2]; [7]
  % Injury Ave: 39.0%
  % Injury Range (%): 5-100%
  No. plants with 20-40% injury: 0
  No. plants with <20% injury: 3
  No. plants with >40% injury: 2
Arabidopsis [2]; [8]
  % Injury Ave: 5.0%
  % Injury Range (%): 0-20%
  No. plants with 20-40% injury: 1
  No. plants with <20% injury: 3
  No. plants with >40% injury: 0
Arabidopsis [2]; [9]
  % Injury Ave: 5.0%
  % Injury Range (%): 0-20%
  No. plants with 20-40% injury: 1
  No. plants with <20% injury: 3
  No. plants with >40% injury: 0
Arabidopsis [2]; [10]
  % Injury Ave: 10.0%
  % Injury Range (%): 0-20%
  No. plants with 20-40% injury: 2
  No. plants with <20% injury: 2
  No. plants with >40% injury: 0
Arabidopsis [2]; [11]
  % Injury Ave: 15.0%
  % Injury Range (%): 5-30%
  No. plants with 20-40% injury: 2
  No. plants with <20% injury: 2
  No. plants with >40% injury: 0

B2: pDAB105533: TraP12 v2 -- dgt-28 v5: binary construct TraP12 v2: dgt-28 v5 (SEQ ID NO:36) (nucleic acid)
DNA: ATGGCACAATCTAGCAGAATCTGCCACGGTGTGCAGAACCCATGTGTGATCATTTCAAATCTCTCAAAGTCCAATCAGAACAAATCACCTTTCTCCGTCTCCCTCAAGACACACCAGCATCCAAGGGCATACCCGATAAGCAGCTCATGGGGACTCAAGAAGAGCGGAATGACTCTGATTGGCTCTGAGCTTCGTCCTCTTAAGGTTATGTCCTCTGTTTCCGCAGCAAGAGGGATGCCAGCCTTGTCTTTACCTGGATCAAAGAGTATCACAGCTAGGGCACTCTTTCTTGCTGCTGCTGCTGATGGGGTTACTACTTTGGTGAGGCCATTGAGAAGTGACGACACAGAAGGATTCGCTGAGGGGTTAGTTCGTTTAGGCTATCGTGTAGGGAGGACACCCGATACTTGGCAAGTCGATGGCAGACCACAAGGACCAGCAGTGGCTGAGGCTGACGTCTACTGTAGAGACGGAGCAACCACCGCTAGATTCTTGCCAACCTTAGCAGCTGCTGGTCACGGAACATACAGATTTGATGCTTCACCACAGATGAGGAGACGTCCTCTTTTGCCCTTAAGCAGAGCCTTGAGGGATTTGGGTGTCGATCTTAGACACGAAGAAGCTGAAGGTCATCACCCTCTGACTGTCCGTGCTGCTGGGGTTGAAGGAGGAGAGGTTACTTTGGATGCTGGTCAGTCAAGTCAGTATCTCACTGCCTTGTTGCTCCTTGGTCCCCTTACAAGACAAGGACTGAGGATAAGGGTTACTGATTTGGTGTCAGCACCATACGTGGAGATTACGCTTGCAATGATGAGGGCTTTCGGAGTTGAAGTGGCAAGGGAGGGAGATGTGTTCGTTGTTCCACCTGGTGGATATCGTGCAACTACGTATGCTATAGAACCCGACGCAAGTACTGCTTCTTACTTCTTCGCAGCTGCTGCTTTGACTCCTGGAGCTGAAGTGACTGTACCTGGGTTAGGCACGGGAGCACTTCAAGGAGATTTGGGATTTGTAGATGTCTTAAGGAGAATGGGAGCCGAGGTGTCCGTAGGAGCTGATGCAACCACTGTTAGAGGAACTGGTGAATTGCGTGGCCTTACAGCCAACATGAGAGACATAAGTGATACGATGCCGACCCTCGCTGCAATAGCACCCTTTGCTAGTGCTCCAGTTAGAATCGAGGATGTTGCCAACACTCGTGTCAAAGAATGTGACAGACTTGAGGCTTGTGCAGAGAACCTTAGGAGGTTGGGAGTAAGGGTTGCAACGGGTCCGGACTGGATTGAGATACACCCTGGTCCAGCTACTGGTGCTCAAGTCACAAGCTATGGTGATCACAGAATTGTGATGTCATTTGCAGTGACTGGACTTCGTGTGCCTGGGATCAGCTTCGACGACCCTGGCTGTGTTCGTAAGACTTTTCCTGGGTTTCACGAGGCTTTCGCAGAATTGAGGCGTGGCATTGGGAGCTGA
modifications: In-frame fusion of dgt-28 v5 and TraP12 v2
Arabidopsis [1]
  T1 Families Tested Segregating at 1 Locus (%): 50%
Arabidopsis [2]; [3]
  % Injury Ave: 10.0%
  % Injury Range (%): 0-25%
  No. plants with 20-40% injury: 1
  No. plants with <20% injury: 4
  No. plants with >40% injury: 0
Arabidopsis [2]; [4]
  % Injury Ave: 53.6%
  % Injury Range (%): 8-85%
  No. plants with 20-40% injury: 1
  No. plants with <20% injury: 1
  No. plants with >40% injury: 3
Arabidopsis [2]; [5]
  % Injury Ave: 11.0%
  % Injury Range (%): 0-20%
  No. plants with 20-40% injury: 1
  No. plants with <20% injury: 4
  No. plants with >40% injury: 0
Arabidopsis [2]; [6]
  % Injury Ave: 55.0%
  % Injury Range (%): 25-80%
  No. plants with 20-40% injury: 2
  No. plants with <20% injury: 0
  No. plants with >40% injury: 3
Arabidopsis [2]; [7]
  % Injury Ave: 11.0%
  % Injury Range (%): 0-20%
  No. plants with 20-40% injury: 1
  No. plants with <20% injury: 4
  No. plants with >40% injury: 0
Arabidopsis [2]; [8]
  % Injury Ave: 0.0%
  % Injury Range (%): 0%
  No. plants with 20-40% injury: 0
  No. plants with <20% injury: 4
  No. plants with >40% injury: 0
Arabidopsis [2]; [9]
  % Injury Ave: 0.0%
  % Injury Range (%): 0%
  No. plants with 20-40% injury: 0
  No. plants with <20% injury: 4
  No. plants with >40% injury: 0
Arabidopsis [2]; [10]
  % Injury Ave: 0.0%
  % Injury Range (%): 0%
  No. plants with 20-40% injury: 0
  No. plants with <20% injury: 4
  No. plants with >40% injury: 0
Arabidopsis [2]; [11]
  % Injury Ave: 13.3%
  % Injury Range (%): 8-25%
  No. plants with 20-40% injury: 1
  No. plants with <20% injury: 3
  No. plants with >40% injury: 0
